Assay [1] has as its target T1, EGFR expressed on H292 cells (human, UniProt P00533 25-1210).
T1 construct: whole, on cells; H292 cells also express c-Met; also called epidermal growth factor receptor
As to the kind of experiment: flow cytometry on H292 cells; antibody titrated, then 100 nM Biotin-h.EGF as the blocked ligand, detected with Streptavidin-FITC. As to the method: (§1) H292 cells, which were human non-small cell lung cancer cells purchased from Procell, were capable of expressing EGFR and c-Met receptors. H292 cells were expanded to a suitable density, digested and detached from the cell culture flask, resuspended to 1×10⁶ cells/ml, added to a 96-well flow plate, 100 μL per well, and centrifuged for later use. The antibody to be tested was subjected to 3-fold dilution with PBS, starting from 200 nM, and the diluted sample was added to the 96-well flow plate with cells, 100 μL/well, and incubated at 25° C. for 60 min. […] Streptavidin-FITC (purchased from Jackson) was diluted 100 times with PBS and added to the plate, 100 µL/well, incubated at 4° C. for 30 min, and washed twice with PBS. 100 μL/well of PBS was added to resuspend the cells, then the cells were detected on a CytoFlex (Beckman) flow cytometer, and the corresponding MFI was calculated.
On the technique in general: Flow cytometry measures light scatter and fluorescence of single cells or particles in a stream.

Assay [2] deals with T2, monkey c-MET protein (monkey, UniProt A0A2K5UM36 25-932).
T2 construct: The construct is not described
Put plainly: ForteBio (BLI) affinity assay, monkey c-Met protein. As to the method:
(§2) After the antibodies were prepared, the ForteBio affinity assay was performed according to the reported method (Estep, P et al., Determination of antibody-antigen affinity and epitope binding based on high-throughput methods. MAbs, 2013.5(2): p. 270-8).
A general note: Biolayer interferometry detects binding as a change in optical thickness at a sensor tip.

In assay [3] the target is T3, human c-MET protein (human, UniProt P08581 25-932).
T3 construct: The construct is not described; also called cellular mesenchymal epithelial transition factor (c-Met) antigen
Put plainly: ForteBio (BLI) affinity assay, human c-Met protein. As to the method:
as §2

Assay [4] deals with T1, EGFR expressed on H292 cells. Put plainly: flow cytometry on H292 cells, blocking of biotin-h.EGF (100 nM) binding to EGFR; EGFRxMET-136; blocking of EGF on H292 cells. How it is done:
as §1

The target of assay [5] is T4, EGFR and c-Met receptors co-expressed on A375 or H292 cells (human, UniProt P00533 25-1210; P08581 25-1390).
T4 construct: whole, on cells; Not a complex; also called EGFR and c-Met positive tumor cells
As to the kind of experiment: flow cytometry, binding to H292 cells (high EGFR and c-Met expression). From the text:
(§3) A375 cells were human malignant melanoma cells and purchased from Addexbio, which were capable of low expression of EGFR and c-Met receptors. H292 cells were human lung adenocarcinoma cells and purchased from procell, which were capable of high expression of EGFR and c-Met receptors. HCC827 cells were human non-small cell lung cancer cells and purchased from the Cell Bank of the Chinese Academy of Sciences, which were capable of high expression of EGFR and c-Met receptors. The expanded cells were adjusted to an appropriate cell density, and added to a 96-well flow plate. After centrifugation, the gradiently diluted samples to be tested were added and incubated at 4° C. for 1 hour. The cells were washed twice with PBS, then a fluorescent secondary antibody, diluted to an appropriate concentration, was added, incubated at 4° C. for 30 min, and washed twice with PBS. The cells were resuspended by PBS, and detected on a CytoFlex flow cytometer, and corresponding MFI was calculated.

In assay [6] the target is T4, EGFR and c-Met receptors co-expressed …. As to the kind of experiment: flow cytometry, binding to A375 cells (low EGFR and c-Met expression).
Text: as §3

For assay [7], the target named is T1, EGFR expressed on H292 cells. Put plainly: flow cytometry on H292 cells, blocking of biotin-h.EGF (100 nM) binding to EGFR; EGFRxMET-187; blocking of EGF on H292 cells. As to the method:
as §1

For assay [8], the target named is T4, EGFR and c-Met receptors co-expressed …. As to the kind of experiment: flow cytometry, binding to A375 cells (low EGFR and c-Met expression); A375 cells.
Text: as §3

Changes are numbered by the printed parent chain.

A word on the IC50: it is the concentration at which inhibition is half-maximal. As a reminder, the Kd is the constant that tells how readily two partners part at equilibrium. As usually defined, the koff is the rate constant with which the complex falls apart. What is called kon is a measure of how fast the partners come together. A word on the EC50: it is the midpoint of the concentration-response curve.

T2 sequence (A0A2K5UM36 entry or part of it limits assumed): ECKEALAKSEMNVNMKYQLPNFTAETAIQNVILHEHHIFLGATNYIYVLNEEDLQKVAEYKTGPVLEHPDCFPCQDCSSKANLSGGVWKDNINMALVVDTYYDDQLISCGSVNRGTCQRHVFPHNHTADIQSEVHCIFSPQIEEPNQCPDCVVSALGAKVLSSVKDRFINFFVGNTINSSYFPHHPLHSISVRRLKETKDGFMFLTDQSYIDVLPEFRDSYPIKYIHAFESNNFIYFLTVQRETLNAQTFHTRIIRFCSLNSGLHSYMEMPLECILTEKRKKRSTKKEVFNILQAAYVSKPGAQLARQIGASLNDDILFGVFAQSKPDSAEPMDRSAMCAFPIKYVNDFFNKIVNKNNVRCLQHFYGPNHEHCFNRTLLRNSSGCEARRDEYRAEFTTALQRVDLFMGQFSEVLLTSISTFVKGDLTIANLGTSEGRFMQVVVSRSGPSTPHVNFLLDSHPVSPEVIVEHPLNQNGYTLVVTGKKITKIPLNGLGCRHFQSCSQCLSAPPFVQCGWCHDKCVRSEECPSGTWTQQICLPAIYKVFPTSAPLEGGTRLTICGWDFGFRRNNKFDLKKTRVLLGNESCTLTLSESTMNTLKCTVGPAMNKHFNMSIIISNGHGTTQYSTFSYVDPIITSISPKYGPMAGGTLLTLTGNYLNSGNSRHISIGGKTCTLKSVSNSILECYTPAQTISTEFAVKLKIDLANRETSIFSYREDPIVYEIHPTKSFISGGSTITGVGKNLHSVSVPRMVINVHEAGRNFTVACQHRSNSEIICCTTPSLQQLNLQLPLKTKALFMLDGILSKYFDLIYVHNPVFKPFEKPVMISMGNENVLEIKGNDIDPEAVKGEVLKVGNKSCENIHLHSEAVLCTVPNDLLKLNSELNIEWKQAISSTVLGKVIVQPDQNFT
T3 sequence (P08581 25-932 limits assumed): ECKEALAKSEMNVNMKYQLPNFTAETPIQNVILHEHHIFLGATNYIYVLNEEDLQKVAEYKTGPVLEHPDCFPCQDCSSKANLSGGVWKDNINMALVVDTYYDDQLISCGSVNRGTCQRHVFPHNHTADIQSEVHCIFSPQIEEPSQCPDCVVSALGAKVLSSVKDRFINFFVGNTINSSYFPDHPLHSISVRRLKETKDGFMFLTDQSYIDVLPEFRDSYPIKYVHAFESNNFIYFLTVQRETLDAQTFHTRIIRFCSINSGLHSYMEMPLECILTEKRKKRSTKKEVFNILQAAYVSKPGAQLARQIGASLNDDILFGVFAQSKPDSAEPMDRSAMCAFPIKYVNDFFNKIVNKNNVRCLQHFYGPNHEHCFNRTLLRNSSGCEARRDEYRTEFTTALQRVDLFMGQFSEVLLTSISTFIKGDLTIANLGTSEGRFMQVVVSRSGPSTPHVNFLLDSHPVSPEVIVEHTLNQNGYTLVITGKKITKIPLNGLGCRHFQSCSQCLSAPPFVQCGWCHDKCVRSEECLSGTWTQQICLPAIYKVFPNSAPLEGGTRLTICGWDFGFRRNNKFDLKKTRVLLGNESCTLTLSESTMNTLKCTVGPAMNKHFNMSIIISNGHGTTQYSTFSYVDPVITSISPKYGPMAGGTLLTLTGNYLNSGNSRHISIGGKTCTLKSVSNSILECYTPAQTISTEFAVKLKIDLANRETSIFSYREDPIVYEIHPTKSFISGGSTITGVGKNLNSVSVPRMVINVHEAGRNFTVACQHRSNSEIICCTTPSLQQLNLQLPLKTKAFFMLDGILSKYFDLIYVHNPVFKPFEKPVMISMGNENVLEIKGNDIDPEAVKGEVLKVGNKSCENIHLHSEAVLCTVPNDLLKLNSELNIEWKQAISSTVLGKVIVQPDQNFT

B1: Amivantamab analog (bispecific antibody, human IgG1, kappa)
anti-EGFR heavy chain (EGFR-1 Fc): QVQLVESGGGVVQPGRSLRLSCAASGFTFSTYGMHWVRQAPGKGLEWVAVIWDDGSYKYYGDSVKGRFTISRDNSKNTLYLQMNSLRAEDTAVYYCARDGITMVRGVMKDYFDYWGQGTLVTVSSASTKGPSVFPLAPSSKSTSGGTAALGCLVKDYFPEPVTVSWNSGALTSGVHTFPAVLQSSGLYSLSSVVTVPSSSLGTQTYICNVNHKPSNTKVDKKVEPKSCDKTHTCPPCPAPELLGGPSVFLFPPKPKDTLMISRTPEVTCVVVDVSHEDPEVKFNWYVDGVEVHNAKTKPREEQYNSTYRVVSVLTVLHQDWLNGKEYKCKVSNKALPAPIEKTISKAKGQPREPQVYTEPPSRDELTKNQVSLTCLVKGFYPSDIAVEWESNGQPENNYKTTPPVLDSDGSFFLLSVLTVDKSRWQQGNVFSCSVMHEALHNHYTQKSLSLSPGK
anti-EGFR light chain: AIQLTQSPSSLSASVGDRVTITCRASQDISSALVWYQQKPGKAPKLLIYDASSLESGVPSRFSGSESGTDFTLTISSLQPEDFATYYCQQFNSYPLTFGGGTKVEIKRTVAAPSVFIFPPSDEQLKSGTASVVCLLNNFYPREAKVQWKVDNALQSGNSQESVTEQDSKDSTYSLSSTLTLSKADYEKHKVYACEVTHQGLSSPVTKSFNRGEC
anti-cMet control heavy chain (cMet-2 Fc): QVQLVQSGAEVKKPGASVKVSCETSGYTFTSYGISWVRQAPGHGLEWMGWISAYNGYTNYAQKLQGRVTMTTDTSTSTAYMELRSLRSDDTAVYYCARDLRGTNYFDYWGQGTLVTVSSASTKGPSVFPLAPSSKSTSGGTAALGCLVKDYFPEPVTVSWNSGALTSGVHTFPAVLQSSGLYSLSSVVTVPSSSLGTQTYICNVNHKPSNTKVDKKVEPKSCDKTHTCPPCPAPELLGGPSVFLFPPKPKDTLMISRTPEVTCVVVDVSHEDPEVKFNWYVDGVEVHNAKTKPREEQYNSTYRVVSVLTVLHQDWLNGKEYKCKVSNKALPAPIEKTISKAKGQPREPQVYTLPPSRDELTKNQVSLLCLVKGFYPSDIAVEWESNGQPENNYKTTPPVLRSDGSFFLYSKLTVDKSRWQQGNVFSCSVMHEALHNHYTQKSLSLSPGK
anti-cMet control light chain: DIQMTQSPSSVSASVGDRVTITCRASQGISNWLAWFQHKPGKAPKLLIYAASSLLSGVPSRFSGSGSGTDFTLTISSLQPEDFATYYCQQANSFPITFGQGTRLEIKRTVAAPSVFIFPPSDEQLKSGTASVVCLLNNFYPREAKVQWKVDNALQSGNSQESVTEQDSKDSTYSLSSTLTLSKADYEKHKVYACEVTHQGLSSPVTKSFNRGEC
notes: also called control antibody; control molecule Amivantamab
In assay [1], B1 showed an IC50 of 2.64 nM.

B2: anti-c-MET antibody 136 (antibody, V domains shown)
VH: EVQLQESGPGLVKPSETLSLTCTVSGGSVTSVNYYWKWIRQPPGKGLEWIGYISYSGNTNYNPSLKSRVTISVDTSKNQFSLKLSSVTAADTAVYYCVRAPYYYMDVWSKGTTVTVSS
VL: DIVMTQSPSSVSASVGDRVTITCRASQGISSWLAWYQQKPGKAPKLLIYAVSSLQSGVPSRFSGSGSGTDFTLTISSLQPEDFATYFCQQANSFPLTFGGGTKVEIK
notes: Candidate from yeast display screening, as tested in the ForteBio assay
In assay [2], B2 came in with a Kd of 1.16 nM, an off-rate (koff) of 0.000426 s⁻¹ and a kon of 369000 M⁻¹ s⁻¹. In assay [3], this molecule yielded a dissociation constant Kd of 0.0293 nM, a koff of 6.71e-06 s⁻¹ and a kon of 229000 M⁻¹ s⁻¹.

B3: anti-c-MET antibody 187 (antibody, V domains shown)
VH: ELQLQESGPGLVKPSETLSLTCTVSGGSISSSSYYWGWIRQSPGKGLEWIGSRYYSGNTYYNPSLKSRVTMSVDTSKNQFSLKLRSVTAADTAVYYCARQVYDYWRDWGQGALVTVSS
VL: B2 VL with K45N, V51A, S53N, Q55P, D70V, F87Y, A91S
notes: as for B2
In assay [2], B3 yielded a dissociation constant Kd of 2.92 nM, a koff of 0.000947 s⁻¹ and a kon of 324000 M⁻¹ s⁻¹. Besides, in assay [3], the Kd was determined as 1.68 nM, the koff worked out at 0.000369 s⁻¹ and the kon was determined as 220000 M⁻¹ s⁻¹.

B4: EGFRxMET-136 (bispecific antibody, human IgG1, kappa)
heavy 1: not shown
light 1: not shown
heavy 2: not shown
light 2: DIVMTQSPSSVSASVGDRVTITCRASQGISSWLAWYQQKPGKAPKLLIYAVSSLQSGVPSRFSGSGSGTDFTLTISSLQPEDFATYFCQQANSFPLTFGGGTKVEIKRTVAAPSVFIFPPSDEQLKSGTASVVCLLNNFYPREAKVQWKVDNALQSGNSQESVTEQDSKDSTYSLSSTLTLSKADYEKHKVYACEVTHQGLSSPVTKSFNRGEC
notes: 1+1 heterodimeric IgG1-type bispecific
B4 registered a concentration for half-maximal inhibition (IC50) in assay [4] of 3.15 nM.

B5: EGFRxMET-187 Afu (bispecific antibody, human IgG1, kappa)
heavy 1: not shown
light 1: not shown
heavy 2: not shown
light 2: B4 light 2 with K45N, V51A, S53N, Q55P, D70V, F87Y, A91S
modifications: afucosylated glycan
As for B5, the values for the EC50 in assay [5] and in assay [6] were 1.46 nM and 1.05 nM, respectively.

B6: EGFRxMET-187 (bispecific antibody, human IgG1, kappa)
heavy 1: not shown
light 1: not shown
heavy 2: not shown
light 2: B4 light 2 with K45N, V51A, S53N, Q55P, D70V, F87Y, A91S
notes: as for B4
Molecule B6 showed an IC50 in assay [7] of 2.9 nM.

B7: EGFRxMET-136 Afu (bispecific antibody, human IgG1, kappa)
heavy 1: not shown
light 1: B4 light 2 with T129R, T178R, T180Q
heavy 2: not shown
light 2: DIQLTQSPSSLSASVGDRVTITCRASQDISSALVWYQQKPGKAPKLLIYDASSLESGVPSRFSGSESGTDFTLTISSLQPEDFATYYCQQFNSYPLTFGGGTKVEIKRTVAAPSVFIFPPSDEELKSGTASVQCLLNNFYPREAKVQWKVDNALQSGNSQESVTEQDSKDSTYSLSSELTLSKADYEKHKVYACEVTHQGLSSPVTKSFNRGEC
modifications: afucosylated glycan
In assay [8], B7 returned an EC50 of 1.35 nM.

Values taken from patent publication US20250223366A1 (BIOTHEUS, published 2025).
